According to paper PMC4678016:

Target: capping protein (CP), purified, as used in pyrene-actin polymerization assays
Experiment: pyrene-actin seeded polymerization assay

- Kd: 2.9 nM
Substance: CARMIL2-CBR (CP-binding region of human CARMIL2b, Pro-961 to Arg-1072) (from UniProt Q6F5E8-2 961-1072) (domain or fragment)
